Holding throughout (assay): cell_activity; CHO iGFFP reporter
One data set concerns the target T1, LOX 3-4m.1506 (artificial (I-CreI derived)).
T1 chain: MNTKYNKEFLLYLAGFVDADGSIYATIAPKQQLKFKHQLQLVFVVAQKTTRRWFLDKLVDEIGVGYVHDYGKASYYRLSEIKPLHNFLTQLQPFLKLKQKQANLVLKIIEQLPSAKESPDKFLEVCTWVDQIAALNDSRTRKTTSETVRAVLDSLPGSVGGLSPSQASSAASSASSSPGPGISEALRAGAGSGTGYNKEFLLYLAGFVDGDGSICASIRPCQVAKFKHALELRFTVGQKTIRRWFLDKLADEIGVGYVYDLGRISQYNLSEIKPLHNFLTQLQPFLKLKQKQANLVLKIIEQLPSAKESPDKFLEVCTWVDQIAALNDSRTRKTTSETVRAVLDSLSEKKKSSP
An excerpt: (§1) A CHO cell reporter system (see WO/2012/167192, FIG. 3) was used to determine whether the engineered meganucleases generated in these studies could recognize and cleave the modified LOX 3-4 recognition sequences in Table 87. To perform the assay, a pair of CHO cell reporter lines were produced, which carried a non-functional Green Fluorescent Protein (GFP) gene expression cassette integrated into the genome of the cell. The GFP gene in each cell line was interrupted by a pair of recognition sequences such that intracellular cleavage of either recognition sequence by a meganuclease would stimulate a homologous recombination event resulting in a functional GFP gene. In both cell lines, one of the recognition sequences was derived from the LOX 3-4 recognition sequence (i.e., those sequences disclosed in Table 87), and the second recognition sequence was specifically recognized by a control meganuclease called “CHO 23/24.” CHO reporter cells comprising a recognition sequence derived from the LOX 3-4 recognition sequence and the CHO 23/24 recognition sequence are referred to herein as “test cells.”
(§2) Novel engineered meganucleases derived from the LOX 3-4x.109 meganuclease were prepared by making amino acid substitutions at one or more positions in the first subunit and one or more positions in the second subunit. These engineered meganucleases were then evaluated for cleavage of the LOX 3-4 recognition sequence modified to have an ATGA center sequence (SEQ ID NO: 220) in the CHO reporter assay according to Example 1.

The target in the next data set is T2, LOX 3-4m.1421 (artificial (I-CreI derived)).
T2 chain: T1 chain with K72R, E80Q, R139K, P180S, K239R, R263H, S265A, E271Q, R330K
Description: as §1, §2

A further data set concerns the target T3, LOX 3-4m.1486 (artificial (I-CreI derived)).
T3 chain: T1 chain with K72T, P180S, I241S, A250V
Description: as §1, §2

In a further data set the target is T4, LOX 3-4m.1500 (artificial (I-CreI derived)).
T4 chain: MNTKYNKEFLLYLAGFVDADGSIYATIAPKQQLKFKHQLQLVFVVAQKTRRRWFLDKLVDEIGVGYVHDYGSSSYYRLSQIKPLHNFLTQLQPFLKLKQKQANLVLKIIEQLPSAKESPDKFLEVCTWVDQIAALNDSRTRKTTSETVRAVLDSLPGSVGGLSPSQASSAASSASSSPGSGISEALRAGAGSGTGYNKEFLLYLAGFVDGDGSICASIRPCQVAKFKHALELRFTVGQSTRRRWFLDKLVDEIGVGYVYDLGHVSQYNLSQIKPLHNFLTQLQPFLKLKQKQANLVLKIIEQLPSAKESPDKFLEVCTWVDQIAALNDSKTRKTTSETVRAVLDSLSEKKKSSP
Description: as §1, §2

In a further data set the target is T5, LOX 3-4m.2248 (artificial (I-CreI derived)).
T5 chain: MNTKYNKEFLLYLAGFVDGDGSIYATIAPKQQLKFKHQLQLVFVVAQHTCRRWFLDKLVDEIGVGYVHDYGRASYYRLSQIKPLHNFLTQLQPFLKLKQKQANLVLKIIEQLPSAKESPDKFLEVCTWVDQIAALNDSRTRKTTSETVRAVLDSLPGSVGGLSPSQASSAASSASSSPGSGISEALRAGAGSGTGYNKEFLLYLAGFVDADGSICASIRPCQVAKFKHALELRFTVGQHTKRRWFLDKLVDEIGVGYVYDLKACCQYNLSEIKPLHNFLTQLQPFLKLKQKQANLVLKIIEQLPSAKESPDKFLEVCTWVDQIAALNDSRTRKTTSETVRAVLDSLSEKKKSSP
Description: as §1
(§3) Novel engineered meganucleases derived from the LOX 3-4x.109 meganuclease were prepared by making amino acid substitutions at one or more positions in the first subunit and one or more positions in the second subunit. These engineered meganucleases were then evaluated for cleavage of the LOX 3-4 recognition sequence modified to have an ATAT center sequence (SEQ ID NO: 200) in the CHO reporter assay according to Example 1.

For another data set, the target named is T6, LOX 3-4m.2313 (artificial (I-CreI derived)).
T6 chain: T4 chain with K48A, R50K, S72R, S73A, S239A, R241K, H263K, V264C, S265A, K330P
Description: as §1, §3

The next data set concerns the target T7, LOX 3-4m.2330 (artificial (I-CreI derived)).
T7 chain: T4 chain with R50K, S72R, S73A, Q80E, S239A, G262R, H263N, V264C, S265C, K330R
Description: as §1, §3

The target of the next data set is T8, LOX 3-4m.2329 (artificial (I-CreI derived)).
T8 chain: T4 chain with K48T, S72R, S73A, S239T, R241N, H263G, V264C, S265C, K330R
Description: as §1, §3

The next data set addresses T9, LOX 3-4m.1854 (artificial (I-CreI derived)).
T9 chain: T4 chain with K48H, G71T, S72R, S73V, Q80E, R139K, S239T, R241K, H263K, S265A
Description: as §1
(§4) Novel engineered meganucleases derived from the LOX 3-4x.109 meganuclease were prepared by making amino acid substitutions at one or more positions in the first subunit and one or more positions in the second subunit. These engineered meganucleases were then evaluated for cleavage of the LOX 3-4 recognition sequence modified to have a GCAA center sequence (SEQ ID NO: 267) in the CHO reporter assay according to Example 1.

The next data set has as its target T10, LOX 3-4m.1868 (artificial (I-CreI derived)).
T10 chain: T1 chain with T50R, K72P, A73T, E80Q, R139K, P180S, I241C, A250V, S265A
Description: as §1, §4

Another data set has as its target T11, LOX 3-4m.1789 (artificial (I-CreI derived)).
T11 chain: T1 chain with T50C, G71R, K72Q, A73V, R139K, P180S, I241C, A250V, R263T, I264C
Description: as §1, §4

Another data set deals with T12, LOX 3-4m.1875 (artificial (I-CreI derived)).
T12 chain: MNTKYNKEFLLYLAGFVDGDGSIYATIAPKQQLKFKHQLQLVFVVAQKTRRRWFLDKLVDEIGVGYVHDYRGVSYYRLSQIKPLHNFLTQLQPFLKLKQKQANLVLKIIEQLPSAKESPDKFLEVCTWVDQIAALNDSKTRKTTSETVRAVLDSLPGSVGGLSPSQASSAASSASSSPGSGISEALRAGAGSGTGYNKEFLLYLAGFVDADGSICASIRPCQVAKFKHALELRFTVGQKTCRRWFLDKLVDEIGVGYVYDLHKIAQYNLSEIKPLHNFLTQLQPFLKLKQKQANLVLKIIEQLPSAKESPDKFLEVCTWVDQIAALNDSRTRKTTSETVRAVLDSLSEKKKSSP
Description: as §1, §4

Numbering of substitutions follows the chain as printed.

B1: LOX 3-4 ATGA (dsDNA)
DNA 1: GTATAGCATATGATATACGAAG
DNA 2: CTTCGTATATCATATGCTATAC
Consider B1, for which the activity came to 8.2 % GFP with LOX 3-4m.1506, 8.37 % GFP with LOX 3-4m.1421, 9.23 % GFP with LOX 3-4m.1486 and 3.6 % GFP with LOX 3-4m.1500.

B2: LOX 3-4 ATAT (dsDNA)
DNA 1: GTATAGCATATATTATACGAAG
DNA 2: CTTCGTATAATATATGCTATAC
In the case of B2, the activity amounted to 13.8 % GFP with LOX 3-4m.2248, 13.1 % GFP with LOX 3-4m.2313, 13.9 % GFP in the data set with LOX 3-4m.2330 and 14.9 % GFP with LOX 3-4m.2329.

B3: LOX 3-4 GCAA (dsDNA)
DNA 1: GTATAGCATGCAATATACGAAG
DNA 2: CTTCGTATATTGCATGCTATAC
B3: the activity with LOX 3-4m.1854 is 7.67 % GFP; with LOX 3-4m.1868, 7.56 % GFP; in the data set with LOX 3-4m.1789 it was 8.9 % GFP; with LOX 3-4m.1875, 8.14 % GFP.

Values taken from US20220195407, “OPTIMIZATION OF ENGINEERED MEGANUCLEASES FOR RECOGNITION SEQUENCES” (Precision BioSciences, Inc., published 2022).
